What was measured:
[1] = molecular target: MUC1 on HCT116/MUC1 cells (human) (UniProt P15941); assay: flow cytometry on HCT116-MUC1 cells, 5 µg isotype control, 60 min on ice
[2] = molecular target: MUC1 on HCT116/MUC1 cells (human) (UniProt P15941); assay: flow cytometry titration on HCT116/MUC1 cells; isotype control

MUC1 on HCT116/MUC1 cells (human), sequence (P15941 24-1255): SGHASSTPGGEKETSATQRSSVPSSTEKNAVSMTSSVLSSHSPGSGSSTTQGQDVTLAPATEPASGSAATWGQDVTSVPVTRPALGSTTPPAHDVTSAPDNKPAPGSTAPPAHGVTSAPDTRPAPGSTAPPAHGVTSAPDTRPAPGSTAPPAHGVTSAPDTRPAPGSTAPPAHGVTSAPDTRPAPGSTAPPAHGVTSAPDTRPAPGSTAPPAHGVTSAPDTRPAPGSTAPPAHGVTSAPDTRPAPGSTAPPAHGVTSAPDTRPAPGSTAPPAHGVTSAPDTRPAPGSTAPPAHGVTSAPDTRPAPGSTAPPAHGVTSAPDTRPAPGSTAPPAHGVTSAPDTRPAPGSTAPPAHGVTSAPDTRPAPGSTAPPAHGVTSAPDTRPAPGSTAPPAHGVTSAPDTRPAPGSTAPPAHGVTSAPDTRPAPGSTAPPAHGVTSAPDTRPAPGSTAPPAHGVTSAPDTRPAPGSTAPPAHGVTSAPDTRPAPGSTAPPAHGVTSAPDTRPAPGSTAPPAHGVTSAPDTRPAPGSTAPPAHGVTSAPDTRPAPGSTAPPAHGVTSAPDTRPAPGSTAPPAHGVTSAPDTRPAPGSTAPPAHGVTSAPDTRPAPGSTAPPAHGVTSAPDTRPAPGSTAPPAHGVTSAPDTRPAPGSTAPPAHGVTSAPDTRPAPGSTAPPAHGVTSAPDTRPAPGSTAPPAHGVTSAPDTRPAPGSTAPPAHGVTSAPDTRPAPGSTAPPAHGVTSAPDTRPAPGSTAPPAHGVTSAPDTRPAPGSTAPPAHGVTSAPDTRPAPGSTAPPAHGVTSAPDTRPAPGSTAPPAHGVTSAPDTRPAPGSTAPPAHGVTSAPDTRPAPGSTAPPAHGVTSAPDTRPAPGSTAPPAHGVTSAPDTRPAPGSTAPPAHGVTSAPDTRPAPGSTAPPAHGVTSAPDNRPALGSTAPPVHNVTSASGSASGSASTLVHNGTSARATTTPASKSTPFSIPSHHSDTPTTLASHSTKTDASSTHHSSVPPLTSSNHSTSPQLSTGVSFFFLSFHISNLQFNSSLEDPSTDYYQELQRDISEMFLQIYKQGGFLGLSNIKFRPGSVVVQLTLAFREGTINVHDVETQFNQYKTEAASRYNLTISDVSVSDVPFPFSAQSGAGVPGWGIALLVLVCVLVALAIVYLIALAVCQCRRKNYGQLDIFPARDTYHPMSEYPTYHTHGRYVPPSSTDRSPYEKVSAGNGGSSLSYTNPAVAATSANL

Substance	number over the gate bar (share of cells in the positive gate) [1]	EC50 [2] [nM]
Control (antibody)	0.6	
Human IgG (antibody)		0.292

From patent US20230265208A1
